According to doi:10.64898/2025.12.22.696113:

These substances were tested against extracellular domain of Arabidopsis thaliana HAESA-LIKE 3 (HSL3, AT5G25930, residues 23–662) (Arabidopsis thaliana) (assay: SPR).

Substance	Kd	kon
CTNIP4^51–70 (peptide)	3.91 µM	568 M⁻¹ s⁻¹
CTNIP4^54–70 (peptide)	5.29 µM	498 M⁻¹ s⁻¹
CTNIP4^48–70 (peptide)	1.99 µM	1140 M⁻¹ s⁻¹
